Experimental data: patent US20180214548A1 (SHANGHAI YUNYI HEALTHCARE AND TECHNOLOGY, published 2018)
One block for each binder: values may come before it.

How the values were obtained:
[1] = molecular target: T1, cyno PD-1, full length, on CHO-K1 cells (cyno monkey, UniProt B0LAJ3 25-288); test: flow cytometry on CHO-K1-cPD-1 cells
T1 construct: also called CHO-K1-cPD-1; cPD-1
From the text: CHO-K1 cells were stably transfected with pIRES plasmid containing the nucleic acid sequence encoding full length human PD-1 (see Example 2, step 2) to generate CHO-K1 cells stably expressing human PD-1 (herein referred to as CHO-K1-hPD-1 cells). Other CHO-K1 were stably transfected with pIRES plasmid containing the nucleic acid sequence encoding full length cyno PD-1 to generate CHO-K1 cells stably expressing cyno PD-1 (herein referred to as CHO-K1-cPD-1 cells). CHO-K1-hPD-1 and CHO-K1-cPD-1 cells were cultured and expanded in T-75 culture flasks to 90% confluence. The culture media was aspirated, and the cells were washed twice with HBSS (Hanks Balanced Salt Solution, Invitrogen). The cells were treated with enzyme-free cell dissociation solution (Versene solution, Invitrogen) and collected. The cells were then washed twice with HBSS, cell counts were determined, and cells were resuspended with HBSS at 2×10⁶ cells/mL. Goat serum was added to the cell suspension to a final concentration of 1%, and the cells were blocked for 30 minutes on ice and then washed twice with HBSS. The cells were collected after centrifugation and resuspended in FACS buffer (HBSS+1% BSA, v/v) at 2×10⁶ cells/mL. 100 uL of the cell suspension were then added to each well of 96-well plate. 100 uL of purified anti-PD-1 antibodies from Example 2 were added to each well of the 96-well plate and incubated for 2 hours on ice. […] The samples were washed three times with FACS buffer, and 100 uL fixation buffer (4% paraformaldehyde v/v) were added to each well and incubated for 10 minutes. The cells were then washed twice with FACS buffer and resuspended in 100 uL FACS buffer. The mean fluorescence intensity (MFI) was determined using FACS Calibur (BD), and the results are shown in FIGS. 7-8 and in Tables 10-11.

[2] = molecular target: T2, human PD-1, full length, on cells (human, UniProt Q15116 25-288); test: cell-based or functional assay
T2 sequence (Q15116 25-288): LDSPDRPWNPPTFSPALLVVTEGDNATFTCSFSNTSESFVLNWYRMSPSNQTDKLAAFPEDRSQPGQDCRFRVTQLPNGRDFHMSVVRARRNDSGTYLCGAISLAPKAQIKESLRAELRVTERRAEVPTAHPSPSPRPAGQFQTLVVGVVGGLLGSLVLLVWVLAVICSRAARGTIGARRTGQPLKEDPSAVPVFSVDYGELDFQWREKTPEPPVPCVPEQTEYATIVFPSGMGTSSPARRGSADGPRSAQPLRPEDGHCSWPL

[3] = molecular target: T2, human PD-1, full length, on cells; test: cell-based or functional assay; remark: listed apart in the source
[4] = molecular target: T2, human PD-1, full length, on cells; test: cell-based or functional assay; remark: listed apart in the source
[5] = molecular target: T2, human PD-1, full length, on cells; test: cell-based or functional assay; remark: listed apart in the source
[6] = molecular target: T3, human PD-1^ECD-hFc protein (Immunogen A) (human, UniProt Q15116 25-167); test: BLI Octet Red 96, biotinylated PD-1ECD-hFc on streptavidin sensor
T3 construct: also called PD-1-hFc; hPD-1^ECD-hFc; not shown: human IgG Fc fragment (hFc)
T3 sequence (Q15116 25-167): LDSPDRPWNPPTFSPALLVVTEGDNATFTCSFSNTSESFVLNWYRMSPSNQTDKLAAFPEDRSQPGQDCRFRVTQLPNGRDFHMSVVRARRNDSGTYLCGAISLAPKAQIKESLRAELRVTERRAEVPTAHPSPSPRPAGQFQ
Protocol: Dissociation constants were determined by Octed red 96 (Fortiebio). The detailed operation and methods were followed according to the specifications of the instrument provided by the manufacturer. Briefly, a streptavidin sensor (SA sensor, Fortiebio) was used for the affinity determination. […] The reaction mixture was further incubated in PBS buffer (pH7.4) containing 0.1% (v/w) BSA and 0.02% (v/v) Tween20 at 30° C. for 5 minutes. […] The affinity, association and dissociation constants were determined using Octet User software, and the results are shown in Table 12.

[7] = molecular target: T4, cyno PD-1^ECD-hFc protein (cyno monkey, UniProt B0LAJ3 25-167); test: ELISA, coated cyno PD-1ECD-hFc; antibody 0.1 nM
T4 construct: Prepared by the method for Immunogen A; also called Cyno Monkey PD-1^ECD-hFc; cyno monkey PD-1-hFc; not shown: human IgG Fc fragment (hFc) and its junction to the ECD
T4 sequence (B0LAJ3 entry or part of it limits assumed): as the sequence (Q15116 25-167) above, with D2E, P10A, V19L, T35A, Q75R counted along it
Protocol: (§1) 100 uL of the diluted recombinant proteins were added to each well of 96-well plate. The plates were sealed with plastic film and incubated at 4° C. overnight. The plates were washed twice with wash buffer (PBS+0.01% (v/v) Tween20), and incubated with blocking buffer (PBS+0.01% (v/v) Tween20+1% (w/w) BSA) at room temperature for 2 hours. The blocking buffer was aspirated away, and 100 uL of purified anti-PD-1 antibodies were added to each well and incubated for 2 hours at 37° C. The plates were washed three times with wash buffer (PBS+0.01% (v/v) Tween20). HRP-conjugated secondary antibody (Sigma) was added to each well and incubated for 2 hours at 37° C. After the plates were washed three times with wash buffer, 100 uL TMB substrate was added to each well and incubated for 30 minutes at room temperature. 100 uL stop solution (0.1N HCl) was added to each well to stop the reaction. The absorbance at 450 nm was measured with an ELISA plate reader (384plus SpectraMax, Molecular Devices).

[8] = molecular target: T4, cyno PD-1^ECD-hFc protein; test: ELISA, coated cyno PD-1ECD-hFc; antibody 10 nM
Protocol: as §1

CD28 [9] = molecular target: T5, CD28 (human, UniProt P10747 19-152); test: ELISA on coated protein (Table 9)
T5 sequence (P10747 19-152 limits assumed): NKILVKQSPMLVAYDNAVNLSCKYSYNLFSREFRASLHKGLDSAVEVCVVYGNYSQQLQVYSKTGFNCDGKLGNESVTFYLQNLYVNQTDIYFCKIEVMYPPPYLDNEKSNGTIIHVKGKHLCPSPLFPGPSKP
Protocol: as §1

B7-1 = molecular target: T6, B7-1 (human, UniProt P33681 35-242); test: ELISA on coated protein (Table 9)
T6 sequence (looked up): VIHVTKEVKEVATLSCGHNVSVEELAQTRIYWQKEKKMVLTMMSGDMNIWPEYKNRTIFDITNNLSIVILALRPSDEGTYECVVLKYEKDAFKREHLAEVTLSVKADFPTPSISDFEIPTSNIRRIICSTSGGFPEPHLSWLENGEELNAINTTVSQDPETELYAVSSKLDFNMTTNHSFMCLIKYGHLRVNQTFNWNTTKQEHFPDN
Protocol: as §1

ICOS [10] = molecular target: T7, ICOS (human, UniProt Q9Y6W8 21-140, limits assumed); test: ELISA on coated protein (Table 9)
T7 sequence (looked up): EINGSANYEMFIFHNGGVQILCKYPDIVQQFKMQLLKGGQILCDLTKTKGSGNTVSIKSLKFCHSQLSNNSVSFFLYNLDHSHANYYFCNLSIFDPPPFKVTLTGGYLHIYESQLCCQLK
Protocol: as §1

CTLA4 [11] = molecular target: T8, CTLA4 (human, UniProt P16410 37-162, limits assumed); test: ELISA on coated protein (Table 9)
T8 sequence (looked up): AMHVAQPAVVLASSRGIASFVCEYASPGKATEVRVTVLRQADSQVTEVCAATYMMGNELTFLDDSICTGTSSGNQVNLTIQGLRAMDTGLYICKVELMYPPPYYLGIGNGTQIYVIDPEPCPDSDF
Protocol: as §1

[12] = molecular target: T4, cyno PD-1^ECD-hFc protein; test: ELISA, coated cyno PD-1ECD-hFc; antibody 0.01 nM
Protocol: as §1

CD28 [13] = molecular target: T5, CD28; test: ELISA, coated protein 1 ug/mL; antibody concentration not stated
Protocol: as §1

ICOS [14] = molecular target: T7, ICOS; test: as above
Protocol: as §1

CTLA4 [15] = molecular target: T8, CTLA4; test: as above
Protocol: as §1

[16] = molecular target: T4, cyno PD-1^ECD-hFc protein; test: ELISA, coated cyno PD-1ECD-hFc; antibody 1 nM
Protocol: as §1

[17] = molecular target: T4, cyno PD-1^ECD-hFc protein; test: ELISA, coated cyno PD-1ECD-hFc; antibody 100 nM
Protocol: as §1

[18] = molecular target: T2, human PD-1, full length, on cells; test: flow cytometry on CHO-K1-hPD-1 cells

T1 sequence (B0LAJ3 entry or part of it limits assumed): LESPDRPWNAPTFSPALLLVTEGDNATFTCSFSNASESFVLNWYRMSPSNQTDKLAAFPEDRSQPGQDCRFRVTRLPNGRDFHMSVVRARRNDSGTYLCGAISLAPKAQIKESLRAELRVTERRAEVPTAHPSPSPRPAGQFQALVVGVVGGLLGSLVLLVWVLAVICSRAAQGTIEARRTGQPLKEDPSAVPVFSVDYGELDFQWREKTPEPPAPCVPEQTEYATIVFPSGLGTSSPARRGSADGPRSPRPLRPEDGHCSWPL

B1: chimeric anti-PD-1 antibody 76G5B3 (antibody, V domains shown)
VH: QVQLVESGGGVVQPGRSLRLSCAASGFTFSDYGFHWVRQAPGKGLEWVAVIWYDGSNEYYTDSVKGRFTISRDNSKNTLYLQMNSLRAEDTAMYFCVVNPFDYWGQGTLVTVSS
VL: DIQMTQSPSSLSAFVGDRVTITCRASQGINHYLAWYQQKPGKAPNLLILAASTLLSGVPSRFGGRGSGTDFTLIISSLQPEDVATYYCQKYDSAPYTFGQGTKLEIK
MFI at 0.0316 nM [1]: 2.3 MFI
MFI at 0.1 nM [1]: 28.4 MFI
MFI at 0.316 nM [1]: 59.3 MFI
MFI at 1 nM [1]: 132 MFI
MFI at 3.16 nM [1]: 217 MFI
MFI at 10 nM [1]: 326 MFI
MFI at 31.6 nM [1]: 314 MFI
MFI at 100 nM [1]: 297 MFI
IL-2 release, mixed lymphocyte reaction (PBMC donor-1), antibody 0.001 µg/mL [2]: 88.8 pg/mL
IL-2 release, mixed lymphocyte reaction (PBMC donor-1), antibody 0.01 µg/mL [2]: 131 pg/mL
IL-2 release, mixed lymphocyte reaction (PBMC donor-1), antibody 0.1 µg/mL [2]: 148 pg/mL
IL-2 release, mixed lymphocyte reaction (PBMC donor-1), antibody 1 µg/mL [2]: 140 pg/mL
IFN-γ release, mixed lymphocyte reaction (PBMC donor-1), antibody 0.001 µg/mL [3]: 2900 pg/mL
IFN-γ release, mixed lymphocyte reaction (PBMC donor-1), antibody 0.01 µg/mL [3]: 7530 pg/mL
IFN-γ release, mixed lymphocyte reaction (PBMC donor-1), antibody 0.1 µg/mL [3]: 12100 pg/mL
IFN-γ release, mixed lymphocyte reaction (PBMC donor-1), antibody 1 µg/mL [3]: 8110 pg/mL
IFN-γ release, mixed lymphocyte reaction (PBMC donor-2), antibody 0.001 µg/mL [4]: 1810 pg/mL
IFN-γ release, mixed lymphocyte reaction (PBMC donor-2), antibody 0.01 µg/mL [4]: 5520 pg/mL
IFN-γ release, mixed lymphocyte reaction (PBMC donor-2), antibody 0.1 µg/mL [4]: 12700 pg/mL
IFN-γ release, mixed lymphocyte reaction (PBMC donor-2), antibody 1 µg/mL [4]: 15900 pg/mL
IL-2 release, mixed lymphocyte reaction (PBMC donor-2), antibody 0.001 µg/mL [5]: 93.3 pg/mL
IL-2 release, mixed lymphocyte reaction (PBMC donor-2), antibody 0.01 µg/mL [5]: 145 pg/mL
IL-2 release, mixed lymphocyte reaction (PBMC donor-2), antibody 0.1 µg/mL [5]: 182 pg/mL
IL-2 release, mixed lymphocyte reaction (PBMC donor-2), antibody 1 µg/mL [5]: 194 pg/mL
Kd [6]: 0.032 nM
koff [6]: 1.3e-05 s⁻¹
kon [6]: 408000 M⁻¹ s⁻¹

B4: fully human anti-PD-1 antibody 32B5C7 (antibody, human IgG4 S228P, kappa, V domains shown)
VH: EVQLLESGGGLVQPGGSLRLSCAASGFTFSSYAMSWVRQAPGKGLEWVSTISGSGGTTYYADSVKGRFTISRDNSKNTLYLQMNSLRAEDTAVYYCTLTGDPDYWGQGTLVTVSS
VL: EIVLTQSPATLSLSPGERATLSCRASQSVSSYLAWYQQKPGQAPRLLIYDASKRATGIPARFSGSGSGTDFTLTISSLEPEDFAVYYCQQRNNWPLTFGGGTKVEIKR
MFI at 0.01 nM [18]: 2.8 MFI

Now from value to binder:

OD450 nm [7]: 1.28
OD450 nm [8]: 2.74
binding result (CD28 [9]): no binding
binding result (B7-1): no binding
binding result (ICOS [10]): no binding
binding result (CTLA4 [11]): no binding
OD450 nm [12]: 0.342
OD450 nm (CD28 [13]): 0.166
OD450 nm (ICOS [14]): 0.14
OD450 nm (CTLA4 [15]): 0.106
OD450 nm [16]: 2.61
OD450 nm [17]: 2.7
B2: chimeric anti-PD-1 antibody 223G6B5 (antibody, V domains shown)
VH: QVQLQESGPGLVKPSETLSLTCAVSGHSIRGSYFWGWIRQPPGRGLEWIGSIYHSGSTYTNPSLKSRATISVDTSKNQFSLKLNSVTAADTAVYYCARDLDIATTRDYWGQGTLVTVSS
VL: DIQLTQSPSFLSASVGDRVTIICRASQGINNYLAWYQQKPGKAPKLLIYAASTLQSGVPSRFSGSGSGTEFTLTISSLQPEDFATYYCQQLDSYPRTFGQGTKVEIKR
notes: Purified from hybridoma of Harbour H2L2 mice: human variable regions, rat constant regions

MFI at 0.0316 nM [1]: 2.2 MFI
MFI at 0.1 nM [1]: 13.7 MFI
MFI at 0.316 nM [1]: 25.8 MFI
MFI at 1 nM [1]: 46.3 MFI
MFI at 3.16 nM [1]: 89 MFI
MFI at 10 nM [1]: 174 MFI
MFI at 31.6 nM [1]: 151 MFI
MFI at 100 nM [1]: 150 MFI
Kd [6]: 0.045 nM
koff [6]: 9.64e-06 s⁻¹
kon [6]: 212000 M⁻¹ s⁻¹
B3: chimeric anti-PD-1 antibody 32B5C7 (antibody, V domains shown)
VH: EVQLLESGGGLVQPGGSLRLSCAASGFTFSSYAMSWVRQAPGKGLEWVSTISGSGGTTYYADSVKGRFTISRDNSKNTLYLQMNSLRAEDTAVYYCTLTGDPDYWGQGTLVTVSS
VL: EIVLTQSPATLSLSPGERATLSCRASQSVSSYLAWYQQKPGQAPRLLIYDASKRATGIPARFSGSGSGTDFTLTISSLEPEDFAVYYCQQRNNWPLTFGGGTKVEIK
